These results are taken from PMC4029989, “Selection of a Novel DNA Aptamer for Assay of Intracellular Interferon-Gamma”.

Broadly, the Kd is the concentration at which binding is half-saturated. A high value points to a looser complex.

In series [1] the target is T1, Interferon-gamma (IFN-γ) (Homo sapiens, UniProt P01579 24-161). The series is described as follows: flow cytometry bead binding; binding buffer (PBS), room temperature, blank-bead signal subtracted; PBS binding buffer (SELEX with 0.1 mg/mL salmon sperm DNA and 1 mg/mL BSA, 37 °C); Kd assay on beads in binding buffer, room temperature, 30 min; pH not stated. Particulars: protein: commercial; chain copies: 2; label: FITC.

Series [2] deals with Interferon-gamma, intracellular (Homo sapiens, UniProt P01579 24-161). The series is described as follows: flow cytometry of fixed permeabilized cells; 0.05 pM aptamer; no correlation with stimulated cells; PBS binding buffer (SELEX with 0.1 mg/mL salmon sperm DNA and 1 mg/mL BSA, 37 °C); Kd assay on beads in binding buffer, room temperature, 30 min; pH not stated. Particulars: protein: native; chain copies: 2.

Series [3] has as its target T1, Interferon-gamma (IFN-γ). In words: flow cytometry bead binding; PBS binding buffer (SELEX with 0.1 mg/mL salmon sperm DNA and 1 mg/mL BSA, 37 °C); Kd assay on beads in binding buffer, room temperature, 30 min; pH not stated. Particulars: protein: commercial; chain copies: 2; label: FITC. For orientation: A flow cytometer gives signals particle by particle.
In series [4] the target is Bovine serum albumin (BSA) (Bos taurus, UniProt P02769 25-607). The series is described as follows: flow cytometry bead binding; bound albumin to a large degree; PBS binding buffer (SELEX with 0.1 mg/mL salmon sperm DNA and 1 mg/mL BSA, 37 °C); Kd assay on beads in binding buffer, room temperature, 30 min; pH not stated. Particulars: protein: commercial; label: FITC.
Chain of Bovine serum albumin (BSA) (P02769 25-607): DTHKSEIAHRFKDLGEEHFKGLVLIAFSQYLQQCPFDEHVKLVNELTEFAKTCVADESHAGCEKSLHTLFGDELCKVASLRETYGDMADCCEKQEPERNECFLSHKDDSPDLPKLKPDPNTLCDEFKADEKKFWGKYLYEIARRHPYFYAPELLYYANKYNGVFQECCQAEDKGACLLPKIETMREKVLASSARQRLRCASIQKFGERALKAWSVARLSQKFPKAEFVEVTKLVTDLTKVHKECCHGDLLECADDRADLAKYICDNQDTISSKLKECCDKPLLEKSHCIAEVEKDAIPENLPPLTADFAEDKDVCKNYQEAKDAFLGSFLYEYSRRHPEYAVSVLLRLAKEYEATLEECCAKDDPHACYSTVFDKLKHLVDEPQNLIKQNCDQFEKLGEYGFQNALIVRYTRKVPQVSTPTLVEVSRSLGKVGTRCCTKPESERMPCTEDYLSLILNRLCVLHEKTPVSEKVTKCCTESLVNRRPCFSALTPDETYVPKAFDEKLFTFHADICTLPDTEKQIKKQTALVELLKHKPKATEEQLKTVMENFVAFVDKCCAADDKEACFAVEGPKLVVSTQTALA

T1 sequence (P01579 24-161): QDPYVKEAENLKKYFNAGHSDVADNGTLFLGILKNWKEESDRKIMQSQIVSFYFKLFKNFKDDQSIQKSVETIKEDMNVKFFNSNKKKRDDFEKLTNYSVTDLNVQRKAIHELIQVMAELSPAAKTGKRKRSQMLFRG
Chain of Interferon-gamma, intracellular (P01579 24-161): as above

B1: B1-4 (ssDNA)
DNA: CCGCCCAAATCCCTAAGAGAAGACTGTAATGACATCAAACCAGACACACTACACACGCA
On to B1, for which, in series [1], the Kd is 74.5 nM. This counts as double-digit nanomolar.

B2: A2 (ssDNA)
DNA: TGCCCGTGTCCCGAGGAGGTGCCCTATTTTGCTTGATTATCTCTAAGGGATTTGGGCGG
Consider B2, for which, in series [2], the binding result is “no binding”.
Consider GGGGTTGGTTGTGTTGGGTGTTGTGT (ssDNA) [T2], for which the binding result in series [3] and in series [4] was “binds” each time.
